Laboratory results from patent US10358638B2, “Method of producing 1,5-pentadiamine using lysine decarboxylase mutant having improved thermal stability” (AJINOMOTO CO., INC., priority 2014, dated 2019).

Key:
[1] = Inhibition of enzyme activity by iron ion and effect of chelating agent EDTA; type: biochemical, Escherichia coli
Experimental: (§1) The activity of the lysine decarboxylase was measured according to the method described in JP patent application laid-open Publication No. 2008-193899. 0.1 mL of a microbial cell suspension or a treated product thereof was added to 1 mL of a reaction solution containing 100 mM MES-NaOH buffer (pH 6.0), 10 g/L (55 mM) of L-lysine hydrochloride and 26.5 mg/L (0.1 mM) of PLP, and then the reaction mixture was incubated at 37° C. for 5 minutes. 0.1 mL of the reaction solution was collected and added to 1 mL of 1% (v/v) phosphoric acid to stop the reaction. Lysine and 1,5-PD were quantified with HPLC by a post column OPA method (S. R. Vale and M. B. Gloria, Journal Of AOAC International (1997) vol. 80, p. 1006-1012) or a method of quantifying remaining L-lysine using a biosensor BF-5 (Oji Scientific Instruments Co., Ltd.). One unit was defined as an activity that formed 1 μmol of 1,5-PD in one minute under this condition.
Cell free extracts were prepared from the strain expressing wild-type CadA and the strain overexpressing double mutant CadA, respectively in the same manner as in Examples 2 and 3. Using the resulting cell free extract, iron sulfate heptahydrate (Nacalai Tesque Inc.) at a final concentration of […] (2 mM) was added to the composition shown in Example 1, and an inhibitory effect was measured. […]

[2] = Remaining lysine decarboxylase activity of cell free extract after incubation at 65° C.; type: biochemical, Escherichia coli
Experimental: as §1
Each transformant was inoculated to 50 mL of L medium in a 500 mL Sakaguchi flask containing 100 μg/mL of ampicillin and cultured with shaking at 30° C. for 16 hours. Microbial cells were collected from the cultured medium by centrifugation, washed once with saline, subsequently suspended in 5 mL of 100 mM potassium phosphate buffer (pH 7.0), and disrupted by sonication at 4° C. for 20 minutes. An insoluble fraction was removed by centrifuging the lysate solution at 8,000 rpm for 10 minutes to prepare a cell free extract.
The resulting cell free extract was diluted 20 fold with 100 mM MES-NaOH buffer (pH 6.0). This crude enzyme solution was incubated at 65° C., and its remaining activity after 3 and 5 hours was measured by the method described in Example 1. As a result, the activity in the crude enzyme solution from the strain expressing the mutated enzyme before incubation was almost the same as that from the strain expressing the wild-type enzyme (Table 3).

[3] = cell free extract diluted 20 fold, before heating

B1: pCadA220: wild-type lysine decarboxylase (CadA) derived from Escherichia coli W3110, expressed from plasmid pCadA220 (protein, UniProt P0A9H3 1-715, looked up)
Inducible lysine decarboxylase: MNVIAILNHMGVYFKEEPIRELHRALERLNFQIVYPNDRDDLLKLIENNARLCGVIFDWDKYNLELCEEISKMNENLPLYAFANTYSTLDVSLNDLRLQISFFEYALGAAEDIANKIKQTTDEYINTILPPLTKALFKYVREGKYTFCTPGHMGGTAFQKSPVGSLFYDFFGPNTMKSDISISVSELGSLLDHSGPHKEAEQYIARVFNADRSYMVTNGTSTANKIVGMYSAPAGSTILIDRNCHKSLTHLMMMSDVTPIYFRPTRNAYGILGGIPQSEFQHATIAKRVKETPNATWPVHAVITNSTYDGLLYNTDFIKKTLDVKSIHFDSAWVPYTNFSPIYEGKCGMSGGRVEGKVIYETQSTHKLLAAFSQASMIHVKGDVNEETFNEAYMMHTTTSPHYGIVASTETAAAMMKGNAGKRLINGSIERAIKFRKEIKRLRTESDGWFFDVWQPDHIDTTECWPLRSDSTWHGFKNIDNEHMYLDPIKVTLLTPGMEKDGTMSDFGIPASIVAKYLDEHGIVVEKTGPYNLLFLFSIGIDKTKALSLLRALTDFKRAFDLNLRVKNMLPSLYREDPEFYENMRIQELAQNIHKLIVHHNLPDLMYRAFEVLPTMVMTPYAAFQKELHGMTEEVYLDEMVGRINANMILPYPPGVPLVMPGEMITEESRPVLEFLQMLCEIGAHYPGFETDIHGAYRQADGRYTVKVLKEESKK
**Q.** What does the source list for B1?
**A.** activity with 2 mM iron ion, of the activity when no iron ion was added ([1]; 2 mM iron ion, no EDTA): 46.8%; Enzyme activity ([1]; FeSO4 2 mM, EDTA 0.5 mM): 827 units/ml; Enzyme activity ([1]; FeSO4 2 mM, EDTA 1 mM): 856 units/ml; Enzyme activity ([1]; FeSO4 2 mM, EDTA 2 mM): 821 units/ml; Enzyme activity ([1]; FeSO4 2 mM, EDTA 4 mM): 840 units/ml; Enzyme activity ([1]; FeSO4 2 mM, EDTA 5 mM): 832 units/ml; Enzyme activity ([1]; FeSO4 2 mM, EDTA None): 398 units/ml; Enzyme activity ([1]; FeSO4 None, EDTA 2 mM): 840 units/ml; Enzyme activity ([1]; FeSO4 None, EDTA None): 850 units/ml; Activity after incubation at 65° C. for 3 h ([2]; 65° C., 3 h): 413 Units/mL; Remaining activity after incubation at 65° C. for 3 h ([2]; 65° C., 3 h, relative to before heating): 59.2%; Activity after incubation at 65° C. for 5 h ([2]; 65° C., 5 h): 360 Units/mL; Remaining activity after incubation at 65° C. for 5 h ([2]; 65° C., 5 h, relative to before heating): 51.6%; Remaining activity after incubation at 65° C. for 5 h ([2]; 65° C., 5 h, relative to before heating, listed as wild-type enzyme): reduced by half; Activity before heating [2, 3]: 697 Units/mL; Activity before heating, remaining activity [2, 3]: 100%
